Target: Staphylococcus aureus DltA (D-alanine-D-alanyl carrier protein ligase) (Staphylococcus aureus) (UniProt Q2FZW6)
Sequence of UniProt Q2FZW6 (Q2FZW6 whole entry): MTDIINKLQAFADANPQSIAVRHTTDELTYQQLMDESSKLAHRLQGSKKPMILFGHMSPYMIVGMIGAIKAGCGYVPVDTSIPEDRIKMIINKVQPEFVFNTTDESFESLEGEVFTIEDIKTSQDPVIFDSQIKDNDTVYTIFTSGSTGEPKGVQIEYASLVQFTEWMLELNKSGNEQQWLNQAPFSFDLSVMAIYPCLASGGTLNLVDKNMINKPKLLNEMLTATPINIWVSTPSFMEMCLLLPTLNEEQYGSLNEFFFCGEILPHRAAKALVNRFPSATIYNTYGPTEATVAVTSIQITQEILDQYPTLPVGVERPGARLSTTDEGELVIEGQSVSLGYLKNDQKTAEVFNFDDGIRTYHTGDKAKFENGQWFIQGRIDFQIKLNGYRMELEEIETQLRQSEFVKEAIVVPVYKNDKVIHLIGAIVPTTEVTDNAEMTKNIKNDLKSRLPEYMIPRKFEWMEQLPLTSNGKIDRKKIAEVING

B1: Wild-type Staphylococcus aureus D-alanyl carrier protein DltC (natural protein)
chain: MEFREQVLNLLAEVAENDIVKENPDVEIFEEGIIDSFQTVGLLLEIQNKLDIEVSIMDFDRDEWATPNKIVEALEELR
modifications: 4'-phosphopantetheine (Ppant) on Ser36 (co-expressed with AcpS to produce Ppant-attached SaDltC)
With B1 the SaDltA adenylation activity (pyrophosphate detection assay, initial rates; 5 uM SaDltA with 300 uM SaDltC, 37 °C), increase over SaDltA alone was 22.3 fold.
